What was measured:
[1] = target: angiotensin I converting enzyme (ACE); experiment: cell-based or functional assay
[2] = target: angiotensin I converting enzyme (ACE); experiment: cell-based or functional assay; remark: listed apart in the source

B1: tripeptide Isoleucine-Threonine-Proline (Ile-Thr-Pro) (peptide)
peptide: ITP
- IC50 value in µM, Modified Matsui assay (ACE inhibition, cleavage of Hip-His-Leu) [1]: 10 µM
- IC50 value in µM, at-line ACE assay (ACE inhibition, cleavage of hippuryl-His-Leu) [1]: 50 µM

B2: tripeptide Methionine-Alanine-Proline (Met-Ala-Pro) (peptide)
peptide: MAP
- IC50 value in the Modified Matsui test (ACE inhibition) [2]: 0.5 µM
- IC50 value in µM, Modified Matsui assay (ACE inhibition, cleavage of Hip-His-Leu) [1]: 0.4 µM
- IC50 value in µM, at-line ACE assay (ACE inhibition, cleavage of hippuryl-His-Leu) [1]: 3.8 µM

B3: tripeptide IPP (peptide)
peptide: IPP
- IC50 value in µM, Modified Matsui assay (ACE inhibition, cleavage of Hip-His-Leu) [1]: 2 µM
- IC50 value in µM, at-line ACE assay (ACE inhibition, cleavage of hippuryl-His-Leu) [1]: 7.1 µM

From patent publication US20090143311A1 (published 2009)
